Four compounds from paper PMC4608562, “Carbohydrate Recognition Specificity of Trans-sialidase Lectin Domain from Trypanosoma congolense” (PLoS Neglected Tropical Diseases, 2015) can be followed below.

One experiment addresses T1, TconTS2-LD (Trypanosoma congolense, UniProt W0YLD6).
T1 construct: gene TS2; C-terminal lectin-like domain without the CD-LD linker alpha-helix; N-terminal His-MBP and C-terminal SNAP-Strep tags kept; expressed in E. coli Rosetta pLacI
The experiment is described as follows: STD NMR. The format is binding. The conditions noted are these: 5.5 uM protein, 3.45 mM ligand; deuterated phosphate pD 7.4; site distinct from mannotriose site.

Experiment [1] deals with TconTS1 enzymatically deglycosylated with EndoHf (native conditions) (Trypanosoma congolense). The experiment is described as follows: SEC; Superdex 200 10/300 GL, 10 mM phosphate buffer pH 7.4, 4°C, 0.5 mL/min, 100 to 300 μg TconTS in 500 μL, detection at 280 nm; column calibrated with gel filtration markers 29,000-700,000 Da; monomer, dimer and oligomer peaks. (In general: Size exclusion chromatography separates by hydrodynamic size, large species first.)

In experiment [2] the target is recombinant TconTS1 (Trypanosoma congolense trans-sialidase 1; CD, α-helix and LD) (Trypanosoma congolense). The description is as above.
In experiment [3] the target is recombinant TconTS2 (Trypanosoma congolense trans-sialidase 2; CD, α-helix and LD) (Trypanosoma congolense). Described as above.

“And” between values parts separate entries of the source, which are not always exact repeats. Equal values may be shown once.

With `OC[C@H]1O[C@@H](O[C@H]2[C@H](O)[C@@H](O)[C@@H](O)O[C@@H]2CO)[C@H](O)[C@@H](O)[C@H]1O` [lactose, β-D-galactosyl-(1–4)-α-D-glucose], the “STD NMR” value on TconTS2-LD is on record as “Binding of lactose to TconTS2-LD was also clearly observed (Fig 3B)”.
Consider “TconTS1 enzymatically deglycosylated with EndoHf (native conditions) (enzyme)”, for which the stoichiometry N (as a rule, the number of molecules, sites or subunits per partner or assembly) in experiment [1] was determined as 2.
Consider “recombinant TconTS1 (Trypanosoma congolense trans-sialidase 1; CD, α-helix and LD) (enzyme)”, for which, in experiment [2], the ratio of monomer to dimer (monomer:dimer) was determined as 1; the stoichiometry N was 2 and 4.
Regarding “recombinant TconTS2 (Trypanosoma congolense trans-sialidase 2; CD, α-helix and LD) (enzyme)”, the stoichiometry N in experiment [3] was 2.
